# Like-named read-outs stand apart in the source and are kept apart here.
# T1: mouse Notch3 NRR recombinant protein (Notch3 NRR_Avi_His tag) (mouse)
# T1 construct: The entry includes the C-terminal Avi and His tag; S1-cleaved heterodimer as for the human protein
# T1 chain: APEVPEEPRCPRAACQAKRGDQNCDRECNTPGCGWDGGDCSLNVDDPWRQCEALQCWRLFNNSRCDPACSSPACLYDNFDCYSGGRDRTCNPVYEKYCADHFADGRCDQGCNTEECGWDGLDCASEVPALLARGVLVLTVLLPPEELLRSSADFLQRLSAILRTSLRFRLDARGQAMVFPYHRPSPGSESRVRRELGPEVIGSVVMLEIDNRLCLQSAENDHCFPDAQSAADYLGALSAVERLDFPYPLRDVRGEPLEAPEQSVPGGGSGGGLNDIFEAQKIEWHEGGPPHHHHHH
# T2: human Notch3 NRR recombinant protein (Notch3 NRR_Avi_His tag) (human)
# T2 construct: Purified from CHO-PACE cells; the entry includes the C-terminal Avi and His6 tag
# T2 chain: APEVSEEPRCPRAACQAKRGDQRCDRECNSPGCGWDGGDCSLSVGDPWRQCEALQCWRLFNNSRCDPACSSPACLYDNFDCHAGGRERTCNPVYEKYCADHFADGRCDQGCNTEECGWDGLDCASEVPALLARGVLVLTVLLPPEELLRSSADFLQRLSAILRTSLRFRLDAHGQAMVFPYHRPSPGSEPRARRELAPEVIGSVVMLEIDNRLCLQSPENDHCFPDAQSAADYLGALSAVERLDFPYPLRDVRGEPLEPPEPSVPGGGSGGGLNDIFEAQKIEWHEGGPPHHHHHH
# T3: human Notch1 NRR-Fc (human, UniProt P46531 1446-1733, limits assumed)
# T3 construct: domain: NRR region; Made in CHO-PACE cells; not shown: human IgG1 Fc fragment
# T3 sequence (looked up): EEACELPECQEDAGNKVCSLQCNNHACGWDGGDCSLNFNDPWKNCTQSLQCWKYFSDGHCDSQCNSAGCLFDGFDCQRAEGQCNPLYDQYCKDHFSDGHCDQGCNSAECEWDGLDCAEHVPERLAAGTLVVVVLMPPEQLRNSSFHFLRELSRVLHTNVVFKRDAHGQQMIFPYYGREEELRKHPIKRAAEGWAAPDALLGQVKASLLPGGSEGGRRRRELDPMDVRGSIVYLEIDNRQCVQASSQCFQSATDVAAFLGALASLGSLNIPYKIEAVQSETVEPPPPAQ
# B1: ch28-me0131 (Notch3-28-cG1-(C)_me-0#118) (antibody, V domains shown)
# VH: EVQLVESGGGLVQPGRSLTLSCVASGFTFRDYGMTWIRQAPGKGLTWVAYISSGSNYIYYAEAVKGRFTISRDNAKNTLYLQMTSLRSEDTALYFCTRRGPFVLDAWGQGASVTVSS
# VL: DIQMTQSPSFLSASVGDRVTINCKASQSINRYLHWFQQKLGEAPKLLIYNANGLQTGIPSRFSGSGSGTDFTLTISSLQSEDVATYFCLQHNTWPDTFGAGTKLELK
# B2: ch28-vc0101 (Notch3-28-cG1-(C)_mcValCitPABC-#54) (antibody, V domains shown)
# VH: EVQLVESGGGLVQPGRSLTLSCVASGFTFRDYGMTWIRQAPGKGLTWVAYISSGSNYIYYAEAVKGRFTISRDNAKNTLYLQMTSLRSEDTALYFCTRRGPFVLDAWGQGASVTVSS
# VL: DIQMTQSPSFLSASVGDRVTINCKASQSINRYLHWFQQKLGEAPKLLIYNANGLQTGIPSRFSGSGSGTDFTLTISSLQSEDVATYFCLQHNTWPDTFGAGTKLELK
# B3: parental rat clone 28 (r28) (antibody, V domains shown)
# VH: EVQLVESGGGLVQPGRSLTLSCVASGFTFRDYGMTWIRQAPGKGLTWVAYISSGSNYIYYAEAVKGRFTISRDNAKNTLYLQMTSLRSEDTALYFCTRRGPFVLDAWGQGASVTVSS
# VL: DIQMTQSPSFLSASVGDRVTINCKASQSINRYLHWFQQKLGEAPKLLIYNANGLQTGIPSRFSGSGSGTDFTLTISSLQSEDVATYFCLQHNTWPDTFGAGTKLELK
# notes: Rat monoclonal antibody from hybridoma, tested as hybridoma supernatant
# B4: hu28-vc0101 (Notch3-28-v1010-hG1-(C)_mcValCitPABC-#54) (antibody, human IgG1, kappa, V domains shown)
# VH: EVQLVESGGGLVQPGGSLRLSCAASGFTFRDYGMTWVRQAPGKGLEWVAYISSGSNYIYYAEAVKGRFTISRDNAKNSLYLQMNSLRAEDTAVYYCARRGPFVLDAWGQGTLVTVSS
# VL: DIQMTQSPSSLSASVGDRVTITCKASQSINRYLHWYQQKPGKAPKLLIYNANGLQTGVPSRFSGSGSGTDFTLTISSLQPEDFATYYCLQHNTWPDTFGGGTKVEIKR
# modifications: vc0101 linker-payload on cysteine residues after partial reduction; sites not specified
# notes: Antibody-drug conjugate of hu28
# B5: hu28 (humanized r28 variant VH1.0/VL1.0) (antibody, human IgG1, kappa, V domains shown)
# VH: EVQLVESGGGLVQPGGSLRLSCAASGFTFRDYGMTWVRQAPGKGLEWVAYISSGSNYIYYAEAVKGRFTISRDNAKNSLYLQMNSLRAEDTAVYYCARRGPFVLDAWGQGTLVTVSS
# VL: DIQMTQSPSSLSASVGDRVTITCKASQSINRYLHWYQQKPGKAPKLLIYNANGLQTGVPSRFSGSGSGTDFTLTISSLQPEDFATYYCLQHNTWPDTFGGGTKVEIKR
# notes: Human IgG1/kappa; also called hu28 VH1.0/VL1.0; hu28 VH1.0/V1.0
# B6: ch75-mc0131 (Notch3-75-cG1-(C)_mc-0#118) (antibody, V domains shown)
# VH: QVKLLQSGAALVKPGASVKMSCKASGYAFTDYWVTWVKQSHGKSLEWIGEISPNSGGTNFNEKFKGKATLTVDKSTSTAYMELSRLTSEDSAIYYCTRGEIRYNWFAYWGQGTLVTVSS
# VL: DIQMTQSPSSLSASVGDRVTITCKASQNVGNNIAWYQQKPGKAPKLLIYYASNRYTGVPSRFSGSGYGTDFTLTISSLQPEDFATYYCQRLYNSPFTFGGGTKVEIK
# B7: ch75-vc6780 (Notch3-75-cG1-(C)_mcValCitPABC-#112) (antibody, V domains shown)
# VH: QVKLLQSGAALVKPGASVKMSCKASGYAFTDYWVTWVKQSHGKSLEWIGEISPNSGGTNFNEKFKGKATLTVDKSTSTAYMELSRLTSEDSAIYYCTRGEIRYNWFAYWGQGTLVTVSS
# VL: DIQMTQSPSSLSASVGDRVTITCKASQNVGNNIAWYQQKPGKAPKLLIYYASNRYTGVPSRFSGSGYGTDFTLTISSLQPEDFATYYCQRLYNSPFTFGGGTKVEIK
# B8: ch75-me0131 (Notch3-75-cG1-(C)_me-0#118) (antibody, V domains shown)
# VH: QVKLLQSGAALVKPGASVKMSCKASGYAFTDYWVTWVKQSHGKSLEWIGEISPNSGGTNFNEKFKGKATLTVDKSTSTAYMELSRLTSEDSAIYYCTRGEIRYNWFAYWGQGTLVTVSS
# VL: DIQMTQSPSSLSASVGDRVTITCKASQNVGNNIAWYQQKPGKAPKLLIYYASNRYTGVPSRFSGSGYGTDFTLTISSLQPEDFATYYCQRLYNSPFTFGGGTKVEIK
# B9: ch75-mc3377 (Notch3-75-cG1-(C)_mc-#115) (antibody, V domains shown)
# VH: QVKLLQSGAALVKPGASVKMSCKASGYAFTDYWVTWVKQSHGKSLEWIGEISPNSGGTNFNEKFKGKATLTVDKSTSTAYMELSRLTSEDSAIYYCTRGEIRYNWFAYWGQGTLVTVSS
# VL: DIQMTQSPSSLSASVGDRVTITCKASQNVGNNIAWYQQKPGKAPKLLIYYASNRYTGVPSRFSGSGYGTDFTLTISSLQPEDFATYYCQRLYNSPFTFGGGTKVEIK
# B10: rat-human chimeric antibody 75 (ch75) (antibody, V domains shown)
# VH: QVKLLQSGAALVKPGASVKMSCKASGYAFTDYWVTWVKQSHGKSLEWIGEISPNSGGTNFNEKFKGKATLTVDKSTSTAYMELSRLTSEDSAIYYCTRGEIRYNWFAYWGQGTLVTVSS
# VL: NIVMTQSPKSMSISVGDRVTMNCKASQNVGNNIAWYQQKPGQSPKLLIYYASNRYTGVPDRFTGGGYGTDFTLTINSMQAEDAAFYYCQRLYNSPFTFGSGTKLEIK
# notes: also called ch75-hIgG1; ch75-hulgG1
# Assays:
# [1] = target: T4, full-length human Notch3 expressed on the cell surface (human, UniProt Q9UM47 40-2321); experiment: cell-based or functional assay
# T4 sequence (Q9UM47 40-2321): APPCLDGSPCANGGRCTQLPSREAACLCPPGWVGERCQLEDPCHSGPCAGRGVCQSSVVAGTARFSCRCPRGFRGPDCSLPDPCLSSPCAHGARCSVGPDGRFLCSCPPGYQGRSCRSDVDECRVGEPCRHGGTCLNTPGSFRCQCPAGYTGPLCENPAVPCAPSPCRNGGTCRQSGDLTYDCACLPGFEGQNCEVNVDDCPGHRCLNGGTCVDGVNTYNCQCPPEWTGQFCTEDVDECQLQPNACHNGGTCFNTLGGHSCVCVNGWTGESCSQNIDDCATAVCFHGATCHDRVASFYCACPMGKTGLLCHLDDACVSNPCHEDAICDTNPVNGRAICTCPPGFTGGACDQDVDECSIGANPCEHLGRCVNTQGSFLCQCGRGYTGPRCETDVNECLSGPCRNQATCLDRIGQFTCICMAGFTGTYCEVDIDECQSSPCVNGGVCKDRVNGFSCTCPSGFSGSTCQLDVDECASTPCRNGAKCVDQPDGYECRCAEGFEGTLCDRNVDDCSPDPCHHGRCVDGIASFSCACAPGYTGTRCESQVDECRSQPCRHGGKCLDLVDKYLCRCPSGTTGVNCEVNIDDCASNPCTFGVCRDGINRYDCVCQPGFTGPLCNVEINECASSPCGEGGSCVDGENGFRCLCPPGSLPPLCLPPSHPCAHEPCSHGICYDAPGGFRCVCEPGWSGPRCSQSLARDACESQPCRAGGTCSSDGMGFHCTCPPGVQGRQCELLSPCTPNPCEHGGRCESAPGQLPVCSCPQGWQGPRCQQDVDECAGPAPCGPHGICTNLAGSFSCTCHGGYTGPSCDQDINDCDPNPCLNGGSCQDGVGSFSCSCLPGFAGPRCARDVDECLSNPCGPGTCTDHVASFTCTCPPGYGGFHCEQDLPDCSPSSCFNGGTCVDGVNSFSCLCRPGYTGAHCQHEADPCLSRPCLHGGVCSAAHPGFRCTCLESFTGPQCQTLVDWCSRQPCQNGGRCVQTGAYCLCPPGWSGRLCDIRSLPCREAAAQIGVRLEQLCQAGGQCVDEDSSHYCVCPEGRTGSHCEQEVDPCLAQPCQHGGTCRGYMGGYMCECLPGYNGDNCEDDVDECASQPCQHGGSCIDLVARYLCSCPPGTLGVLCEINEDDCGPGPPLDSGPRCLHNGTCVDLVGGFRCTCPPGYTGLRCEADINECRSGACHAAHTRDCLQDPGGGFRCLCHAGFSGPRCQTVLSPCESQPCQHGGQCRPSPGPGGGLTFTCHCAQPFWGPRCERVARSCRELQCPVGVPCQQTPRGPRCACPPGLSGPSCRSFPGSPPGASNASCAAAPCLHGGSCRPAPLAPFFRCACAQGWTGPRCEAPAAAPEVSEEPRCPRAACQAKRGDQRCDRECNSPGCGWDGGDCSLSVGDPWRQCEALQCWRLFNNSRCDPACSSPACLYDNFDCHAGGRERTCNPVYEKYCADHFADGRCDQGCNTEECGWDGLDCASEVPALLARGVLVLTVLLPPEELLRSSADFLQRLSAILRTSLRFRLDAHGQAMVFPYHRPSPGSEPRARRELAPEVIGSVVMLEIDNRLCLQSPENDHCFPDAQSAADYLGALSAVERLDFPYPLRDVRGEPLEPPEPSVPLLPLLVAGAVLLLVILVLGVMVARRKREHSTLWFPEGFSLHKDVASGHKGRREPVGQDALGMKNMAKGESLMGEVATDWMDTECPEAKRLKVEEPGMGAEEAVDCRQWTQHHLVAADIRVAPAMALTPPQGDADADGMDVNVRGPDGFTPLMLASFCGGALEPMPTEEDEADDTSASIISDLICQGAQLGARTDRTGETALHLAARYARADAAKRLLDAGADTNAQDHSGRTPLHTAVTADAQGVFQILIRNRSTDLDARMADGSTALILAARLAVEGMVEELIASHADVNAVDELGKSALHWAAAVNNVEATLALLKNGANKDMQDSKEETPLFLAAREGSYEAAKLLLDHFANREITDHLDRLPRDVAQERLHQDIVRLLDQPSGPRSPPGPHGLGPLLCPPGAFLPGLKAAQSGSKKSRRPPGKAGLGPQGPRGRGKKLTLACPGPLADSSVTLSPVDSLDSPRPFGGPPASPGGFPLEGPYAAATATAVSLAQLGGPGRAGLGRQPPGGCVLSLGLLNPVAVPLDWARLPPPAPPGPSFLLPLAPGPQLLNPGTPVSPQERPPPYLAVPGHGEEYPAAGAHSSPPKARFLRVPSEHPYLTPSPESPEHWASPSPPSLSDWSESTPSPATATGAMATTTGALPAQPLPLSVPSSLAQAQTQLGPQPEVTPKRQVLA
# [2] = target: T1, mouse Notch3 NRR recombinant protein …; experiment: ELISA, recombinant protein, hybridoma supernatant
# [3] = target: T2, human Notch3 NRR recombinant protein …; experiment: ELISA, recombinant protein, hybridoma supernatant
# [4] = target: T4, full-length human Notch3 expressed on …; experiment: cell-based or functional assay; remark: listed apart in the source
# [5] = target: T4, full-length human Notch3 expressed on …; experiment: cell-based ELISA, HCC2429 cells; SD 0.025
# Protocol: (§1) On the day of the ELISA, culture media was removed from wells and serially diluted (1:3 in DPBS with calcium chloride and magnesium chloride (Ca/Mg) and 1% BSA) antibody and ADC solutions were applied to the plate. Plates were incubated at room temperature for 2 hours before washed with DPBS with Ca/Mg and 1% BSA. HRP-conjugated secondary antibody was then applied and incubated with cells for 1 hour. Plates were washed with DPBS with Ca/Mg and 1% BSA before being developed with Pico-Chemiluminescent developing kit (Thermal Scientific), and chemiluminescence measurements were performed per manufacturer's instructions. Data plotting and analyses were performed with Microsoft Excel and Graphpad-Prism software.
# [6] = target: T4, full-length human Notch3 expressed on …; experiment: cell-based ELISA, MDA-MB-468 cells; SD 0.063
# Protocol: as §1
# [7] = target: T4, full-length human Notch3 expressed on …; experiment: cell-based ELISA, U2OS/hNotch3 cells; SD 0.029
# Protocol: as §1
# [8] = target: T4, full-length human Notch3 expressed on …; experiment: cell-based or functional assay; remark: listed apart in the source
# [9] = target: T4, full-length human Notch3 expressed on …; experiment: cell-based ELISA, MDA-MB-468 cells; SD 0.054
# Protocol: as §1
# [10] = target: T4, full-length human Notch3 expressed on …; experiment: cell-based ELISA, U2OS/hNotch3 cells
# Protocol: (§2) U-2 OS cells stably over-expressing human or mouse full length Notch3 protein on cell surface (hereinafter U2OS/hNotch3 and U2OS/mNotch3, respectively) were plated at 50,000 cells/well in 96 well plates (white opaque, BD/VWR) the day before ELISA assay. On the day of the ELISA, culture media was removed from wells and serially diluted (1:3 in blocking buffer) antibody solutions were applied to the plate. Plates were incubated at room temperature for 2 hours before being washed with PBS-Mg/Ca. HRP-conjugated secondary antibody was then applied and incubated with cells for 1 hour as described above for recombinant protein ELISA. Plates were washed with PBS-Mg/Ca before being developed with Pico-Chemiluminescent developing kit (Thermal Scientific), and chemiluminescence measurements were performed per manufacturer's instructions. Data plotting and analyses were performed with Microsoft Excel and Graphpad-Prism software.
# [11] = target: T4, full-length human Notch3 expressed on …; experiment: competition ELISA on U2OS/hNotch3 cells; competitor 0.8 nM biotinylated ch28
# Protocol: (§3) 96 well cell culture plates were seeded with U2OS/hNotch3 cells (cell culture plate, Co-star). […] After incubation for 2 hours, the plates were washed, as described above, and HRP-conjugated streptavidin (Southern Biotech) diluted 1:5000 in blocking buffer was applied. After incubation with streptavidin for 30 minutes, the plates were washed again before being developed with TMB solution for 10 minutes. […] Data plotting and analyses were performed with Microsoft Excel and Graphpad-Prism software.
# [12] = target: T4, full-length human Notch3 expressed on …; experiment: cell-based ELISA, HCC2429 cells; SD 0.009
# Protocol: as §1
# [13] = target: T2, human Notch3 NRR recombinant protein …; experiment: SPR (Biacore T100), antibody captured on anti-human IgG-Fc, Notch3 NRR as analyte, 1:1 Langmuir fit
# Protocol: The kinetic constants of the anti-Notch3 NRR interactions were determined by surface plasmon resonance (Biacore® T100, Biacore Inc., Piscataway, N.J.). Flow cells of a CM5 chip were immobilized with approximately 10,000 response units (RU) of anti-human IgG-Fc (Biacore®) in 10 mM Glycine, pH 5.0 at 10 μl/min for 600 seconds. […] Association of four concentrations of human Notch3 NRR recombinant protein (from 3.7-100 nM) and a zero concentration (running buffer) at 100 μl/min were recorded for 3 minutes in TBS with 1 mM CaCl₂. Dissociation of the complexes was measured for 10 minutes. The surface of the chip was regenerated by injecting 3M MgCl₂ with 3 mM EGTA for 60 seconds at 10 μl/min. Curves obtained after subtraction of the reference and buffer signals were fitted to a 1:1 Langmuir binding model with Biacore® T100 Evaluation Software (Biacore®).
# [14] = target: T4, full-length human Notch3 expressed on …; experiment: cell-based ELISA, U2OS/hNotch3 cells; SD 0.077
# Protocol: as §1
# [15] = target: T5, full-length mouse Notch3 expressed on the cell surface (mouse, UniProt Q61982 40-2318); experiment: cell-based ELISA, U2OS/mNotch3 cells
# T5 construct: whole, on cells; Over-expressed on U-2 OS cells; also called U2OS/mNotch3
# T5 sequence (Q61982 40-2318): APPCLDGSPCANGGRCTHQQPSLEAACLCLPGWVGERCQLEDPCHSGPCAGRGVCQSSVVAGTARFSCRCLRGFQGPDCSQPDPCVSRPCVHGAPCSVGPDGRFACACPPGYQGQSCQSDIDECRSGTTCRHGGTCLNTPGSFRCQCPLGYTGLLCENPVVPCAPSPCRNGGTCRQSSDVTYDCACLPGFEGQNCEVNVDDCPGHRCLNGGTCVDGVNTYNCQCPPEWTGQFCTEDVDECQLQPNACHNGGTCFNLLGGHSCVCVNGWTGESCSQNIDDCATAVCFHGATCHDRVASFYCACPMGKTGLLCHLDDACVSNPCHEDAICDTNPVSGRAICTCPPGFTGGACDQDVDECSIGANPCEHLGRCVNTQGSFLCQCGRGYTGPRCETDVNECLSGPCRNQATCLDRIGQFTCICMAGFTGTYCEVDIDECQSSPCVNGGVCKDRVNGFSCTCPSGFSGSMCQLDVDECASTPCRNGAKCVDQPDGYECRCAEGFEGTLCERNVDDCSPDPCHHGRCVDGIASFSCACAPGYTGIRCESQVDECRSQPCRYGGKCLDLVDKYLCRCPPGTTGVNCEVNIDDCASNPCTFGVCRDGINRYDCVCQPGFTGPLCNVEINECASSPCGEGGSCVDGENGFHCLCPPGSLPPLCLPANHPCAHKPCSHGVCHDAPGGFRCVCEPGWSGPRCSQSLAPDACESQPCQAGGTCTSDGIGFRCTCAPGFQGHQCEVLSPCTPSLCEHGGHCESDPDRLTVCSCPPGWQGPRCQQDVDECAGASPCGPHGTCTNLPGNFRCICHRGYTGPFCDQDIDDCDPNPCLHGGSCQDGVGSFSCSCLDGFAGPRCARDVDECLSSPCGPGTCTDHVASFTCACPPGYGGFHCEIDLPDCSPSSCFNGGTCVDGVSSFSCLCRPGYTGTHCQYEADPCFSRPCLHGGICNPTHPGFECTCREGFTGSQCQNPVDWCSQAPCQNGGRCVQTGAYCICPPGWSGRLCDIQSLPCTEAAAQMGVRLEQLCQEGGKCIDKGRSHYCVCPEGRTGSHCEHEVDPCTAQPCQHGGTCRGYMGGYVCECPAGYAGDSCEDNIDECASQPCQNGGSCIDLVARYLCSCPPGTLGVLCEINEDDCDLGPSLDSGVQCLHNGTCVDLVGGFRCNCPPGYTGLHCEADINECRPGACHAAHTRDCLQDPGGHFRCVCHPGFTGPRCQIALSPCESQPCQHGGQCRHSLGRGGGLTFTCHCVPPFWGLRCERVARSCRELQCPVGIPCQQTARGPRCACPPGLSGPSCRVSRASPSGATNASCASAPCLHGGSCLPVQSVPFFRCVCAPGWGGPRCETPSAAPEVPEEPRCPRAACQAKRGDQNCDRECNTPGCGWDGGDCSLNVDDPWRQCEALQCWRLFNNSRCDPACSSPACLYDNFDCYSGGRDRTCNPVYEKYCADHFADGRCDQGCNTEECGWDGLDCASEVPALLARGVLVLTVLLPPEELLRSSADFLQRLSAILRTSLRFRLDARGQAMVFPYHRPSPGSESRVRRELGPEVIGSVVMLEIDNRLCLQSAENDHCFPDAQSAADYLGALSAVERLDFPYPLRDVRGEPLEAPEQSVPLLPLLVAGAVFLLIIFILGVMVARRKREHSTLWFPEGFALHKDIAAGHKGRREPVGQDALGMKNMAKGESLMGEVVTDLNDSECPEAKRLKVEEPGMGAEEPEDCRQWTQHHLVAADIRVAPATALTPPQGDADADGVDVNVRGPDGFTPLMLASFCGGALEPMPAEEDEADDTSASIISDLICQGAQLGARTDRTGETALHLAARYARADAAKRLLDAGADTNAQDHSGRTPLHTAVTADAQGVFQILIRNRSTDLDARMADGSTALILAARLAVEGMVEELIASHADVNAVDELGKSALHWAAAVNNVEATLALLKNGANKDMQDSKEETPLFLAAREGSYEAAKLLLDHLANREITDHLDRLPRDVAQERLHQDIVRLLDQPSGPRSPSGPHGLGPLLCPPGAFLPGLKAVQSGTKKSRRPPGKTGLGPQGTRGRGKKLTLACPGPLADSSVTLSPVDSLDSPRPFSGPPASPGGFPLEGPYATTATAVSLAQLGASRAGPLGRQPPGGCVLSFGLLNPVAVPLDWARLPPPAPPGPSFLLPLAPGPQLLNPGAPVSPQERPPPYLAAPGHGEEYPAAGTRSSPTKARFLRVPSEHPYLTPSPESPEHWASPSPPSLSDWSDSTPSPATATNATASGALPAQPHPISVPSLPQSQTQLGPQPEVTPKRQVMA
# Protocol: as §2
# [16] = target: Notch3-NRR (human); experiment: ELISA: NRR-Fc protein coated at 1 ug/ml, antibody applied at 5 ug/ml, goat anti-human Fc-HRP, TMB, O.D. 450 nM
# Protocol: (§4) After 1 hour of incubation, plates were washed with PBS with 0.9 mM Mg²⁺ and Ca²⁺, before secondary goat anti-human Fc antibody conjugated with HRP were applied and incubated on the plates. After washing again, the plates were developed with TMB and the developing reactions were stopped by adding 0.18M H₂SO₄.
# [17] = target: T3, human Notch1 NRR-Fc; experiment: as above
# Protocol: as §4
# [18] = target: T2, human Notch3 NRR recombinant protein …; experiment: ELISA, plate-coated recombinant protein
# Protocol: Purified human or mouse Notch3 NRR recombinant proteins were coated on CoStar hi-bound 96-well ELISA plates in 100 μl of PBS with Mg/Ca at a concentration of 1 μg/ml overnight. The plates were washed with PBS-Mg/Ca and blocked for 1 hour with 1% BSA in PBS-Mg/Ca. Blocking solution was decanted from the plate and 1:3 serial dilutions of antibodies in blocking solutions were applied to the plate. After incubation at room temperature for 1 hour, plates were washed again with PBS-Mg/Can before HRP (horse radish peroxidase)-conjugated secondary antibody diluted (1:20,000) in blocking buffer was applied. When the primary antibody tested was rat IgG, the secondary antibody was goat anti-rat IgG Fc (Bethyl Biotech); and when the primary antibody was human IgG, the secondary antibody was goat anti-human IgG Fc (Southern Biotech).
# After 1 hour incubation with the secondary antibody, plates were washed again, as described above, and TMB substrate solution was added. The developing reaction was allowed for 10 minutes before the stopping solution, 0.18M H₂SO₄, was added.
# [19] = target: T4, full-length human Notch3 expressed on …; experiment: competition ELISA on U2OS/hNotch3 cells; competitor 0.8 nM biotinylated ch75
# Protocol: as §3
binder,measurement,setting,value
B1,"IC50 of cytotoxicity (MTS viability), HCC2429 cells",[1],30 ng Ab/mL
B2,"IC50 of cytotoxicity (MTS viability), OVCAR3 cells",[1],635 ng Ab/mL
B3,O.D. 450 nM,[2],≥ 1 O.D. 450 nM
same,O.D. 450 nM,[3],≥ 1 O.D. 450 nM
B4,"IC50 of cytotoxicity, MDA-MB-468/hNotch3 cells, Notch3 siRNA (reduced Notch3 expression)",[4],3340 ng Ab/mL
same,"IC50 of cytotoxicity, MDA-MB-468/hNotch3 cells, control siRNA",[4],3 ng Ab/mL
same,EC50,[5],0.176 nM
same,EC50,[6],0.273 nM
same,EC50,[7],0.266 nM
same,"IC50 of cytotoxicity (MTS viability), HCC2429 cells, repeat 1",[8],473 ng Ab/mL
same,"IC50 of cytotoxicity (MTS viability), HCC2429 cells, repeat 2",[8],2940 ng Ab/mL
same,"IC50 of cytotoxicity (MTS viability), MDA-MB-468/hNotch3 cells, repeat 1",[8],3.2 ng Ab/mL
same,"IC50 of cytotoxicity (MTS viability), MDA-MB-468/hNotch3 cells, repeat 2",[8],3 ng Ab/mL
same,"IC50 of cytotoxicity (MTS viability), MDA-MB-468 cells",[8],6540 ng Ab/mL
same,"IC50 of cytotoxicity (MTS viability), OVCAR3 cells",[8],306 ng Ab/mL
same,"IC50 of cytotoxicity (MTS viability), U2OS/hNotch3 cells",[8],1330 ng Ab/mL
B5,EC50,[9],0.192 nM
same,EC50,[10],0.093 nM
same,EC50,[11],3.1 nM
same,EC50,[12],0.132 nM
same,Kd,[13],0.9 nM
same,koff,[13],0.000347 s⁻¹
same,kon,[13],386000 M⁻¹ s⁻¹
same,EC50,[14],0.172 nM
same,EC50,[15],0.13 nM
B6,"IC50 of cytotoxicity (MTS viability), OVCAR3 cells",[1],289 ng Ab/mL
same,"IC50 of cytotoxicity (MTS viability), U2OS/hNotch3 cells",[1],19 ng Ab/mL
B7,"IC50 of cytotoxicity (MTS viability), OVCAR3 cells",[1],922 ng Ab/mL
B8,"IC50 of cytotoxicity (MTS viability), MDA-MB-468 cells",[1],259 ng Ab/mL
B9,"IC50 of cytotoxicity (MTS viability), MDA-MB-468 cells",[1],560 ng Ab/mL
B10,"O.D. 450 nM (ELISA, relative binding capacity)",[16],1.72
same,binding result,[17],no binding (tested: 5 ug/ml)
same,EC50,[10],0.2 nM
same,Kd,[13],17.4 nM
same,koff,[13],0.000992 s⁻¹
same,kon,[13],57000 M⁻¹ s⁻¹
same,EC50,[18],≤ 1 nM
same,EC50,[19],1.3 nM
same,binding result,[15],no binding

# — patent US20140127211A1 (Pfizer, published 2014)
